Results as given in patent publication US10087231B2, “Substitution mutant receptors and their use in an ecdysone receptor-based inducible gene expression system” (Intrexon Corporation, priority 2001, dated 2018).

B1: D450E/A451V/K452R: HsRXRβ ligand binding domain triple substitution mutant (protein)
chain: MGPKKKRKVAPPTDVSLGDELHLDGEDVAMAHADALDDFDLDMLGDGDSPGPGFTPHDSAPYGALDMADFEFEQMFTDALGIDEYGGEFPAPEEMPVDRILEAELAVEQKSDQGVEGPGGTGGSGSSPNDPVTNICQAADKQLFTLVEWAKRIPHFSSLPLDDQVILLRAGWNELLIASFSHRSIDVRDGILLATGLHVHRNSAHSAGVGAIFDRVLTELVSKMRDMRMDKTELGCLRAIILFNPEVRGLSNPSEVEVLREKVYASLETYCKQKYPEQQGRFAKLLLRLPALRSIGLKCLEHLFFFKLIGDTPIDTFLMEMLEAPHQLA
B2: C475T/K476R/Q477T/K478T/Y479H: HsRXRβ ligand binding domain quintuple substitution mutant (protein)
chain: MGPKKKRKVAPPTDVSLGDELHLDGEDVAMAHADALDDFDLDMLGDGDSPGPGFTPHDSAPYGALDMADFEFEQMFTDALGIDEYGGEFPAPEEMPVDRILEAELAVEQKSDQGVEGPGGTGGSGSSPNDPVTNICQAADKQLFTLVEWAKRIPHFSSLPLDDQVILLRAGWNELLIASFSHRSIDVRDGILLATGLHVHRNSAHSAGVGAIFDRVLTELVSKMRDMRMDKTELGCLRAIILFNPDAKGLSNPSEVEVLREKVYASLETYTRTTHPEQQGRFAKLLLRLPALRSIGLKCLEHLFFFKLIGDTPIDTFLMEMLEAPHQLA
B3: S455K/N456S/P457A/S458Q: HsRXRβ ligand binding domain quadruple substitution mutant (protein)
chain: MGPKKKRKVAPPTDVSLGDELHLDGEDVAMAHADALDDFDLDMLGDGDSPGPGFTPHDSAPYGALDMADFEFEQMFTDALGIDEYGGEFPAPEEMPVDRILEAELAVEQKSDQGVEGPGGTGGSGSSPNDPVTNICQAADKQLFTLVEWAKRIPHFSSLPLDDQVILLRAGWNELLIASFSHRSIDVRDGILLATGLHVHRNSAHSAGVGAIFDRVLTELVSKMRDMRMDKTELGCLRAIILFNPDAKGLKSAQEVEVLREKVYASLETYCKQKYPEQQGRFAKLLLRLPALRSIGLKCLEHLFFFKLIGDTPIDTFLMEMLEAPHQLA
B4: E481D/Q482E/Q483P: HsRXRβ ligand binding domain triple substitution mutant (protein)
chain: MGPKKKRKVAPPTDVSLGDELHLDGEDVAMAHADALDDFDLDMLGDGDSPGPGFTPHDSAPYGALDMADFEFEQMFTDALGIDEYGGEFPAPEEMPVDRILEAELAVEQKSDQGVEGPGGTGGSGSSPNDPVTNICQAADKQLFTLVEWAKRIPHFSSLPLDDQVILLRAGWNELLIASFSHRSIDVRDGILLATGLHVHRNSAHSAGVGAIFDRVLTELVSKMRDMRMDKTELGCLRAIILFNPDAKGLSNPSEVEVLREKVYASLETYCKQKYPDEPGRFAKLLLRLPALRSIGLKCLEHLFFFKLIGDTPIDTFLMEMLEAPHQLA
B5: V462L: HsRXRβ ligand binding domain substitution mutant (protein, listed as Homo sapiens)
chain: MSWAARPPFLPQRHAAGQCGPVGVRKEMHCGVASRWRRRRPWLDPAAAAAAAVAGGEQQTPEPEPGEAGRDGMGDSGRDSRSPDSSSPNPLPQGVPPPSPPGPPLPPSTAPSLGGSGAPPPPPMPPPPLGSPFPVISSSMGSPGLPPPAPPGFSGPVSSPQINSTVSLPGGGSGPPEDVKPPVLGVRGLHCPPPPGGPGAGKRLCAICGDRSSGKHYGVYSCEGCKGFFKRTIRKDLTYSCRDNKDCTVDKRQRNRCQYCRYQKCLATGMKREAVQEERQRGKDKDGDGEGAGGAPEEMPVDRILEAELAVEQKSDQGVEGPGGTGGSGSSPNDPVTNICQAADKQLFTLVEWAKRIPHFSSLPLDDQVILLRAGWNELLIASFSHRSIDVRDGILLATGLHVHRNSAHSAGVGAIFDRVLTELVSKMRDMRMDKTELGCLRAIILFNPDAKGLSNPSEVELLREKVYASLETYCKQKYPEQQGRFAKLLLRLPALRSIGLKCLEHLFFFKLIGDTPIDTFLMEMLEAPHQLA
modifications: ligand binding domain only
B6: G500S: HsRXRβ ligand binding domain substitution mutant, glycine to serine at 500 (protein, listed as Homo sapiens)
chain: MSWAARPPFLPQRHAAGQCGPVGVRKEMHCGVASRWRRRRPWLDPAAAAAAAVAGGEQQTPEPEPGEAGRDGMGDSGRDSRSPDSSSPNPLPQGVPPPSPPGPPLPPSTAPSLGGSGAPPPPPMPPPPLGSPFPVISSSMGSPGLPPPAPPGFSGPVSSPQINSTVSLPGGGSGPPEDVKPPVLGVRGLHCPPPPGGPGAGKRLCAICGDRSSGKHYGVYSCEGCKGFFKRTIRKDLTYSCRDNKDCTVDKRQRNRCQYCRYQKCLATGMKREAVQEERQRGKDKDGDGEGAGGAPEEMPVDRILEAELAVEQKSDQGVEGPGGTGGSGSSPNDPVTNICQAADKQLFTLVEWAKRIPHFSSLPLDDQVILLRAGWNELLIASFSHRSIDVRDGILLATGLHVHRNSAHSAGVGAIFDRVLTELVSKMRDMRMDKTELGCLRAIILFNPDAKGLSNPSEVEVLREKVYASLETYCKQKYPEQQGRFAKLLLRLPALRSISLKCLEHLFFFKLIGDTPIDTFLMEMLEAPHQLA
modifications: ligand binding domain only
B7: G321L/P322R/G323V: HsRXRβ ligand binding domain triple substitution mutant (SEQ ID NO: 2) (protein, listed as Homo sapiens)
chain: MSWAARPPFLPQRHAAGQCGPVGVRKEMHCGVASRWRRRRPWLDPAAAAAAAVAGGEQQTPEPEPGEAGRDGMGDSGRDSRSPDSSSPNPLPQGVPPPSPPGPPLPPSTAPSLGGSGAPPPPPMPPPPLGSPFPVISSSMGSPGLPPPAPPGFSGPVSSPQINSTVSLPGGGSGPPEDVKPPVLGVRGLHCPPPPGGPGAGKRLCAICGDRSSGKHYGVYSCEGCKGFFKRTIRKDLTYSCRDNKDCTVDKRQRNRCQYCRYQKCLATGMKREAVQEERQRGKDKDGDGEGAGGAPEEMPVDRILEAELAVEQKSDQGVELRVGTGGSGSSPNDPVTNICQAADKQLFTLVEWAKRIPHFSSLPLDDQVILLRAGWNELLIASFSHRSIDVRDGILLATGLHVHRNSAHSAGVGAIFDRVLTELVSKMRDMRMDKTELGCLRAIILFNPDAKGLSNPSEVEVLREKVYASLETYCKQKYPEQQGRFAKLLLRLPALRSIGLKCLEHLFFFKLIGDTPIDTFLMEMLEAPHQLA
B8: E472D: HsRXRβ ligand binding domain substitution mutant (protein, listed as Homo sapiens)
chain: MSWAARPPFLPQRHAAGQCGPVGVRKEMHCGVASRWRRRRPWLDPAAAAAAAVAGGEQQTPEPEPGEAGRDGMGDSGRDSRSPDSSSPNPLPQGVPPPSPPGPPLPPSTAPSLGGSGAPPPPPMPPPPLGSPFPVISSSMGSPGLPPPAPPGFSGPVSSPQINSTVSLPGGGSGPPEDVKPPVLGVRGLHCPPPPGGPGAGKRLCAICGDRSSGKHYGVYSCEGCKGFFKRTIRKDLTYSCRDNKDCTVDKRQRNRCQYCRYQKCLATGMKREAVQEERQRGKDKDGDGEGAGGAPEEMPVDRILEAELAVEQKSDQGVEGPGGTGGSGSSPNDPVTNICQAADKQLFTLVEWAKRIPHFSSLPLDDQVILLRAGWNELLIASFSHRSIDVRDGILLATGLHVHRNSAHSAGVGAIFDRVLTELVSKMRDMRMDKTELGCLRAIILFNPDAKGLSNPSEVEVLREKVYASLDTYCKQKYPEQQGRFAKLLLRLPALRSIGLKCLEHLFFFKLIGDTPIDTFLMEMLEAPHQLA
modifications: ligand binding domain only
B9: T473E: HsRXRβ ligand binding domain substitution mutant (protein, listed as Homo sapiens)
chain: MSWAARPPFLPQRHAAGQCGPVGVRKEMHCGVASRWRRRRPWLDPAAAAAAAVAGGEQQTPEPEPGEAGRDGMGDSGRDSRSPDSSSPNPLPQGVPPPSPPGPPLPPSTAPSLGGSGAPPPPPMPPPPLGSPFPVISSSMGSPGLPPPAPPGFSGPVSSPQINSTVSLPGGGSGPPEDVKPPVLGVRGLHCPPPPGGPGAGKRLCAICGDRSSGKHYGVYSCEGCKGFFKRTIRKDLTYSCRDNKDCTVDKRQRNRCQYCRYQKCLATGMKREAVQEERQRGKDKDGDGEGAGGAPEEMPVDRILEAELAVEQKSDQGVEGPGGTGGSGSSPNDPVTNICQAADKQLFTLVEWAKRIPHFSSLPLDDQVILLRAGWNELLIASFSHRSIDVRDGILLATGLHVHRNSAHSAGVGAIFDRVLTELVSKMRDMRMDKTELGCLRAIILFNPDAKGLSNPSEVEVLREKVYASLEEYCKQKYPEQQGRFAKLLLRLPALRSIGLKCLEHLFFFKLIGDTPIDTFLMEMLEAPHQLA
modifications: ligand binding domain only

These molecules were tested on GAL4/CfEcR-DEF and pFRLuc in NIH3T3 cells. Settings: 0.04-25 μM GS™-E, compared to wild-type HsRXRβ-EF.
Type: cell-based, mouse
Experimental: The resulting PCR nucleic acid products encoding the mutant RXR ligand binding domains were then each fused to a VP16 transactivation domain as described in Examples 1.3 and 1.6 above. The VP16/mutant RXR receptor constructs were tested for activity by transfecting them into NIH3T3 cells along with GAL4/CfEcR-DEF and pFRLuc in the presence of non-steroid ligand.
DNAs corresponding to the various switch constructs outlined in Example 1.1-1.6 were transfected into mouse NIH3T3 cells (ATCC) as follows. Standard methods for culture and maintenance of the cells were followed. […] Superfect™ (Qiagen Inc.) was used as the transfection reagent. For 12-well plates, 4 μl of Superfect™ was mixed with 100 μl of growth medium. One μg of reporter construct and 0.25 μg of each receptor construct of the receptor pair to be analyzed were added to the transfection mix. […] The cells were harvested and reporter activity was assayed.
Cells were harvested 40 hours after adding ligand. […] Twenty μl of lysate were assayed. […]
The cells were harvested and reporter activity was assayed as described above.
As discussed above, a CfEcR-based gene regulation system is ligand dependent when RXRs are used as the heterodimeric partner and ligand independent when USPs are used as the heterodimeric partner. However, reporter gene expression is induced at very high levels when CfUSP is used as the heterodimeric partner. To improve RXR as heterodimeric partner, Applicants have aligned the polypeptide sequences of several USP and RXR ligand binding domains (domains EF) and identified amino acid residues that are different between these two nuclear receptor family members. In particular, Applicants identified residues that are conserved in all USPs but are different in RXRs and mutated these residues in HsRXRβ. […] The cells were harvested and reporter activity was assayed as described above.
B1 was tested, and the non-steroid ligand sensitivity was “improved non-steroid ligand sensitivity”. B2 was tested, and the non-steroid ligand sensitivity was “improved non-steroid ligand sensitivity”. With B3 the non-steroid ligand sensitivity was “improved non-steroid ligand sensitivity”. In the case of B4, the non-steroid ligand sensitivity is reported as “improved non-steroid ligand sensitivity”. In the case of B5, the non-steroid ligand sensitivity is reported as “improved non-steroid ligand sensitivity”. For B6, the non-steroid ligand sensitivity was “improved ligand sensitivity”. B7 was tested, and the non-steroid ligand sensitivity was “improved ligand sensitivity”. For B8, the non-steroid ligand sensitivity was “improved ligand sensitivity”. B9 was tested, and the non-steroid ligand sensitivity was “improved non-steroid ligand sensitivity”.
